PMC6831737

Biological target: CAP256 SU gp140 (soluble cleavage-independent HIV-1 subtype C Env gp140 antigen) (HIV-1 subtype C, CAP256 SU virus)
Experiment: SEC + native gel or EMSA; GNL affinity-purified protein in PBS pH 7.4, fractionated on Superdex 200 HiLoad 16/600; pooled peaks resolved by BN-PAGE (NativePAGE 3-12% Bis-Tris) and stained with Coomassie

Question: With “CAP256 SU gp140 (soluble cleavage-independent HIV-1 subtype C Env gp140 antigen) (domain or fragment)” as the substance, how does the stoichiometry N read?
Answer: 3
